Experimental data reported in patent US20140274782A1, “AFFINITY REAGENTS AND METHODS FOR DETECTION, PURIFICATION, AND PROTEOMIC ANALYSIS OF METHYLATED PROTEINS” (The Board of Trustees of the Leland Stanford Junior …, priority 2013, published 2014).

T1: G9a and GLP (Homo sapiens, UniProt Q96KQ7+Q9H9B1)
T1 sequence (Q96KQ7 2-1210 limits assumed): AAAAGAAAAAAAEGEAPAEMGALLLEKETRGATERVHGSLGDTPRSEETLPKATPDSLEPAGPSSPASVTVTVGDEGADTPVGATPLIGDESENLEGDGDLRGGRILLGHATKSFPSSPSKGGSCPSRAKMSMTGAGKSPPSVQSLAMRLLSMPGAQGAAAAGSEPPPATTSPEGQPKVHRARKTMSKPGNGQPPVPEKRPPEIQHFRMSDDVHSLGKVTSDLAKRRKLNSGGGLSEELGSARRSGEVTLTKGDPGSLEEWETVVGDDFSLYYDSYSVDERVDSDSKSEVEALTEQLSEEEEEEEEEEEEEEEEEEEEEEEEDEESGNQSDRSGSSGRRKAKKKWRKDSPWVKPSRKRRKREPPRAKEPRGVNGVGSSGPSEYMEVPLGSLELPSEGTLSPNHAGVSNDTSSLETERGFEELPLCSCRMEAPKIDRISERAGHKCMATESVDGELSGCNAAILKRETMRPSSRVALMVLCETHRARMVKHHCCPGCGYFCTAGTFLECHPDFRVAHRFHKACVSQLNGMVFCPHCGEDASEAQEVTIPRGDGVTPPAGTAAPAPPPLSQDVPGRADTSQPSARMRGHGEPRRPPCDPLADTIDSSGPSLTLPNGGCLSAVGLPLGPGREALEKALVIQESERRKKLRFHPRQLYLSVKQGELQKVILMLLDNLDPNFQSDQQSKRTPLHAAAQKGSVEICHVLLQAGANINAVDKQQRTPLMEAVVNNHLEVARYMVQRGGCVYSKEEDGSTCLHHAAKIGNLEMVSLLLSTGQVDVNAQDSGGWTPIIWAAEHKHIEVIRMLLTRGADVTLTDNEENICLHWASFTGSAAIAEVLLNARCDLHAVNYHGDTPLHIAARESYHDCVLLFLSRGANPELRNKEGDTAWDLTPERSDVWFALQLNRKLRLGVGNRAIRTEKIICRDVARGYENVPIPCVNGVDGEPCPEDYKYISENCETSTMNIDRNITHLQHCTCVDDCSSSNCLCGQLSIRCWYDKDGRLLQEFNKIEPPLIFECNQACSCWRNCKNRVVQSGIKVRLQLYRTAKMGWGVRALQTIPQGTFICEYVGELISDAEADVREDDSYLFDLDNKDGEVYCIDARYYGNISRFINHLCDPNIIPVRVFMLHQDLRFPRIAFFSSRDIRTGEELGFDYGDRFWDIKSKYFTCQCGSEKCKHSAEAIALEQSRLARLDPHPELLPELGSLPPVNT
T1 sequence (Q9H9B1 2-1298 limits assumed): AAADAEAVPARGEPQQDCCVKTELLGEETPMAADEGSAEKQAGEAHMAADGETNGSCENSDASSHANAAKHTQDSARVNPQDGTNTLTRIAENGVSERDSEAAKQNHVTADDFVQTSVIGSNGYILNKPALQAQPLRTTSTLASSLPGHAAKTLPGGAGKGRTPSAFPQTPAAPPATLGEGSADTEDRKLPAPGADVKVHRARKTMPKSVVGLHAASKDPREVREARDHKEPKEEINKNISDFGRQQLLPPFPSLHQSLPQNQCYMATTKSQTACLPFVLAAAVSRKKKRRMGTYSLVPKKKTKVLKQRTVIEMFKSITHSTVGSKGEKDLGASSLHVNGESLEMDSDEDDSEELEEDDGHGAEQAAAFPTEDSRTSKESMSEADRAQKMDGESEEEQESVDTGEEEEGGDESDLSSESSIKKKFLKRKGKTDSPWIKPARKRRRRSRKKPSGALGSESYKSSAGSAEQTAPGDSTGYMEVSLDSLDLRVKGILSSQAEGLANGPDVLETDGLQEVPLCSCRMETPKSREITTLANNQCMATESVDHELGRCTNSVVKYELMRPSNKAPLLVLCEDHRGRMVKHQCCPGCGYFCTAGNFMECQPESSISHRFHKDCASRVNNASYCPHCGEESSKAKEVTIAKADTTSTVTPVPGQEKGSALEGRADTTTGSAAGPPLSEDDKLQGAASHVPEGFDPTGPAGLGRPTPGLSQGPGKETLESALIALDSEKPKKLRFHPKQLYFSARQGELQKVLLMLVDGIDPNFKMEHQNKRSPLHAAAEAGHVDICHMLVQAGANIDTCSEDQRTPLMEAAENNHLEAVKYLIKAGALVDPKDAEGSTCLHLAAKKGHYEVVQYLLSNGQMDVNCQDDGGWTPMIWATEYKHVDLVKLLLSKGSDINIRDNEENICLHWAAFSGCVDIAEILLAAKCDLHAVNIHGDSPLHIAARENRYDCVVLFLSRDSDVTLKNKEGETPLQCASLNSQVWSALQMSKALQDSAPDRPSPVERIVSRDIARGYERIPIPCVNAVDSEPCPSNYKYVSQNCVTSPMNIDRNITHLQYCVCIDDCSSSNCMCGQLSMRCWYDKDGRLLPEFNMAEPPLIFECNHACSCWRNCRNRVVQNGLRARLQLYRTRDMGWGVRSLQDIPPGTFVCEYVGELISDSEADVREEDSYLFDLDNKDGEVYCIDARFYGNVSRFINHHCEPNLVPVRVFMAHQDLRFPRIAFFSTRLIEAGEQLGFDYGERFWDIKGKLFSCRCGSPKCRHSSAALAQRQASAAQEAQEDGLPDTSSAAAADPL

B1: PDCD2L (protein, UniProt Q9BRP1 2-358, looked up)
Programmed cell death protein …: AAVLKPVLLGLRDAPVHGSPTGPGAWTASKLGGIPDALPTVAAPRPVCQRCGQPLALVVQVYCPLEGSPFHRLLHVFACACPGCSTGGARSWKVFRSQCLQVPEREAQDAQKQGNSLAAEDWCEGADDWGSDTEEGPSPQFTLDFGNDASSAKDVDWTARLQDLRLQDAVLGAAHPVPPGLPLFLPYYICVADEDDYRDFVNLDHAHSLLRDYQQREGIAMDQLLSQSLPNDGDEKYEKTIIKSGDQTFYKFMKRIAACQEQILRYSWSGEPLFLTCPTSEVTELPACSQCGGQRIFEFQLMPALVSMLKSANLGLSVEFGTILVYTCEKSCWPPNHQTPMEEFCIIQEDPDELLFK
B2: PRDX6 (protein, UniProt P30041 2-224, looked up)
Peroxiredoxin-6: PGGLLLGDVAPNFEANTTVGRIRFHDFLGDSWGILFSHPRDFTPVCTTELGRAAKLAPEFAKRNVKLIALSIDSVEDHLAWSKDINAYNCEEPTEKLPFPIIDDRNRELAILLGMLDPAEKDEKGMPVTARVVFVFGPDKKLKLSILYPATTGRNFDEILRVVISLQLTAEKRVATPVDWKDGDSVMVLPTIPEEEAKKLFPKGVFTKELPSGKKYLRYTPQP
B3: CACYBP (protein, UniProt Q9HB71 2-228, looked up)
Calcyclin-binding protein: ASEELQKDLEEVKVLLEKATRKRVRDALTAEKSKIETEIKNKMQQKSQKKAELLDNEKPAAVVAPITTGYTVKISNYGWDQSDKFVKIYITLTGVHQVPTENVQVHFTERSFDLLVKNLNGKSYSMIVNNLLKPISVEGSSKKVKTDTVLILCRKKVENTRWDYLTQVEKECKEKEKPSYDTETDPSEGLMNVLKKIYEDGDDDMKRTINKAWVESREKQAKGDTEF
B4: ZC3HAV1 (protein, UniProt Q7Z2W4 2-902, looked up)
Zinc finger CCCH-type …: ADPEVCCFITKILCAHGGRMALDALLQEIALSEPQLCEVLQVAGPDRFVVLETGGEAGITRSVVATTRARVCRRKYCQRPCDNLHLCKLNLLGRCNYSQSERNLCKYSHEVLSEENFKVLKNHELSGLNKEELAVLLLQSDPFFMPEICKSYKGEGRQQICNQQPPCSRLHICDHFTRGNCRFPNCLRSHNLMDRKVLAIMREHGLNPDVVQNIQDICNSKHMQKNPPGPRAPSSHRRNMAYRARSKSRDRFFQGSQEFLASASASAERSCTPSPDQISHRASLEDAPVDDLTRKFTYLGSQDRARPPSGSSKATDLGGTSQAGTSQRFLENGSQEDLLHGNPGSTYLASNSTSAPNWKSLTSWTNDQGARRKTVFSPTLPAARSSLGSLQTPEAVTTRKGTGLLSSDYRIINGKSGTQDIQPGPLFNNNADGVATDITSTRSLNYKSTSSGHREISSPRIQDAGPASRDVQATGRIADDADPRVALVNDSLSDVTSTTSSRVDDHDSEEICLDHLCKGCPLNGSCSKVHFHLPYRWQMLIGKTWTDFEHMETIEKGYCNPGIHLCSVGSYTINFRVMSCDSFPIRRLSTPSSVTKPANSVFTTKWIWYWKNESGTWIQYGEEKDKRKNSNVDSSYLESLYQSCPRGVVPFQAGSRNYELSFQGMIQTNIASKTQKDVIRRPTFVPQWYVQQMKRGPDHQPAKTSSVSLTATFRPQEDFCFLSSKKYKLSEIHHLHPEYVRVSEHFKASMKNFKIEKIKKIENSELLDKFTWKKSQMKEEGKLLFYATSRAYVESICSNNFDSFLHETHENKYGKGIYFAKDAIYSHKNCPYDAKNVVMFVAQVLVGKFTEGNITYTSPPPQFDSCVDTRSNPSVFVIFQKDQVYPQYVIEYTEDKACVIS

What was measured:
[1] = tested on: 3×MBT domain of L3MBTL1; assay: Triple SILAC pull-down, 3xMBT/3xMBTD355N ratio (cytoplasmic, nuclear and chromatin fractions of 293T cells); format: binding, human; details: SILAC ratio, pull-down 3xMBT vs 3xMBTD355N; for 3xMBT/D355N UNC Heavy: experiment with UNC0638 in heavy SILAC media; for 3xMBT/D355N UNC Light: experiment with UNC0638 in light SILAC media;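 for all read-outs here: proteins quantified with MaxQuant, requiring at least two unique peptides and quantification in both label directions, normalized to the mean of proteins from a digested loading control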
[2] = target: T1, G9a and GLP; assay: Triple SILAC pull-down after UNC0638 treatment of 293T cells, DMSO/UNC0638 ratio of protein captured by 3×MBT; format: cell-based; parameters: cells were treated for 24 hours with UNC0638 at 2.5 μM or DMSO vehicle control; endogenous in cells; host or cells: HEK 293T; details: for Relative to UNC0638 UNC Heavy / Relative to UNC0638 UNC Light: SILAC ratio DMSO/UNC0638 of protein pulled down with 3xMBT; for Relative to UNC0638 UNC Heavy: UNC0638 in heavy SILAC media; for Relative to UNC0638 UNC Light: UNC0638 in light SILAC media; for Relative to UNC0638 Average: average of UNC Light and UNC Heavy experiments;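 for all read-outs here: mass spectrometry (Q-Exactive) SILAC quantitation, DMSO/UNC0638 ratio computed after subtracting 3×MBTD355N mutant pull-down background, only proteins with at least twofold 3×MBT over mutant signal considered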

| Molecule | 3xMBT/D355N UNC Heavy [1] | 3xMBT/D355N UNC Light [1] | Relative to UNC0638 UNC Heavy [2] | Relative to UNC0638 UNC Light [2] | Relative to UNC0638 Average [2] |
| --- | --- | --- | --- | --- | --- |
| B1 | 2.68 log base 2 | 3.19 log base 2 | 0.22 log base 2 | 0.28 log base 2 | 0.25 log base 2 |
| B2 | 2.01 log base 2 | 2.00 log base 2 | 0.27 log base 2 | 0.23 log base 2 | 0.25 log base 2 |
| B3 | 1.46 log base 2 | 1.48 log base 2 | 0.29 log base 2 | 0.20 log base 2 | 0.25 log base 2 |
| B4 | 2.03 log base 2 | 1.92 log base 2 | −0.16 log base 2 | 0.65 log base 2 | 0.25 log base 2 |
